Among the data in US20100015643A1 are Delta MFI and MFI values, retold here.

Assay [1] concerns the target TLR2 on human monocytes (human) (UniProt O60603). As to the kind of experiment: flow cytometry on monocytes, Sample 1, antibody at 1 µg/mL. For orientation: A flow cytometer gives signals particle by particle.
For assay [2] the target is unchanged. As to the kind of experiment: flow cytometry on monocytes, Sample 1, antibody at 3 µg/mL.
For assay [3] the target is unchanged. As to the kind of experiment: flow cytometry on monocytes, Sample 2, antibody at 1 µg/mL.
For assay [4] the target is unchanged. As to the kind of experiment: flow cytometry on monocytes, Sample 2, antibody at 3 µg/mL.
Assay [5] has the same target. Nature of the assay: flow cytometry on monocytes, Sample 3, antibody at 1 µg/mL.
Assay [6] shares this target. Nature of the assay: flow cytometry on monocytes, Sample 3, antibody at 3 µg/mL.
For assay [7] the target is unchanged. As to the kind of experiment: flow cytometry on monocytes, Sample 1, instrument setting FL534.
Assay [8] has the same target. Nature of the assay: flow cytometry on monocytes, Sample 1, instrument setting FL634.
The target is the same in assay [9]. As to the kind of experiment: flow cytometry on monocytes, Sample 2, instrument setting FL534.
For assay [10] the target is unchanged. As to the kind of experiment: flow cytometry on monocytes, Sample 2, instrument setting FL634.
Assay [11] has the same target. As to the kind of experiment: flow cytometry on monocytes, Sample 3, instrument setting FL534.
Assay [12] shares this target. Nature of the assay: flow cytometry on monocytes, Sample 3, instrument setting FL634.
For assay [13] the target is unchanged. As to the kind of experiment: flow cytometry on monocytes of a patient's blood sample, 3 µg/mL PE-labeled antibody.
For assay [14] the target is unchanged. As to the kind of experiment: flow cytometry on monocytes, MFI of anti-TLR2 antibody minus MFI of control antibody.
For assay [15] the target is unchanged. As to the kind of experiment: flow cytometry on monocytes of a patient's blood sample, 3 µg/mL PE-labeled control antibody.

Chain of UniProt O60603 (O60603 21-784): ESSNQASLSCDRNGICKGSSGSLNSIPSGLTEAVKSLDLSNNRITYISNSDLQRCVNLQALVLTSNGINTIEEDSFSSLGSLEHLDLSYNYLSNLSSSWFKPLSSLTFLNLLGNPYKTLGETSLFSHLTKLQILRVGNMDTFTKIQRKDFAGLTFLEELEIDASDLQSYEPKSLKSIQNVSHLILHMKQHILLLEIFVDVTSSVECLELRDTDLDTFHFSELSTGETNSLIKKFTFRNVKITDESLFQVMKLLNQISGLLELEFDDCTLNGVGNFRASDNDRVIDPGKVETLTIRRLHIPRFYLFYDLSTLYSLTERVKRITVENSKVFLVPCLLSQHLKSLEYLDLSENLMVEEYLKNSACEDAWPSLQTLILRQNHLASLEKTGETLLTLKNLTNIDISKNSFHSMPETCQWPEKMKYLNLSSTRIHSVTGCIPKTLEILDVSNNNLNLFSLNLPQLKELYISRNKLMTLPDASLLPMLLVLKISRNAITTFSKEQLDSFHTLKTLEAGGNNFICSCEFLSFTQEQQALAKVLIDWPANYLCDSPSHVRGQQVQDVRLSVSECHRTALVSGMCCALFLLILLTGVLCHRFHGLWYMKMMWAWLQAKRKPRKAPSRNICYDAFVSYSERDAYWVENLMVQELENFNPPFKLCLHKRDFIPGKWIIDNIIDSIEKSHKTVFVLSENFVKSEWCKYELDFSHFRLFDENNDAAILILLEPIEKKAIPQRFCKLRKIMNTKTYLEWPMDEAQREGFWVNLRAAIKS

In the case of “PE-bound anti-TLR2 monoclonal antibody (clone name: T2.1, product of eBioscience)”, the Delta MFI in assay [1] stood at 53.7 MFI; in assay [2], 77.5 MFI; in [3], 54.1 MFI; in [4], 88 MFI; in assay [5], 40.4 MFI; in assay [6], 68.7 MFI. Further, the Delta MFI came to 77.5 MFI in assay [7]; 286 MFI in [8]; 88 MFI in assay [9]; 340 MFI in assay [10]; 68.7 MFI in [11]; 273 MFI in assay [12]. The substance further had a Delta MFI in assay [14] of 92.6 MFI. Also, the MFI in assay [13] was determined as 104 MFI.

For the substance “PE-labeled control (mouse IgG2a) antibody”, the MFI in assay [15] came to 11.7 MFI.
